Consider 1 protein from paper PMC3488213 (Nucleic Acids Research, 2012).

This series concerns the molecule itself. Put plainly: AUC.

B1: Y29W mutant of C.Esp1396I (natural protein)
chain: MESFLLSKVSFVIKKIRLEKGMTQEDLAWKSNLDRTYISGIERNSRNLTIKSLELIMKGLEVSDVVFFEMLIKEILKHD
A word on the stoichiometry N: it is the number of molecules, sites or subunits per partner or assembly. As to B1, the “stoichiometry N” value was found to be 2.
